According to patent US20160046675A1 (US Dept. of Health and Human Services, published 2016):

Target: RSV F glycoprotein on RSV-infected HEp-2 cells and on RSV virions (respiratory syncytial virus; strain not …, UniProt P03420 26-109; P03420 137-574)
Assay: cell-based or functional assay

Sequence of RSV F glycoprotein on RSV-infected HEp-2 cells and on RSV virions (P03420 26-109, chain 1 of 2): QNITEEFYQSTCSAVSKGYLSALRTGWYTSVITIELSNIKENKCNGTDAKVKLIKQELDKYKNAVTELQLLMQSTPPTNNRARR
Sequence of RSV F glycoprotein on RSV-infected HEp-2 cells and on RSV virions (P03420 137-574, chain 2 of 2): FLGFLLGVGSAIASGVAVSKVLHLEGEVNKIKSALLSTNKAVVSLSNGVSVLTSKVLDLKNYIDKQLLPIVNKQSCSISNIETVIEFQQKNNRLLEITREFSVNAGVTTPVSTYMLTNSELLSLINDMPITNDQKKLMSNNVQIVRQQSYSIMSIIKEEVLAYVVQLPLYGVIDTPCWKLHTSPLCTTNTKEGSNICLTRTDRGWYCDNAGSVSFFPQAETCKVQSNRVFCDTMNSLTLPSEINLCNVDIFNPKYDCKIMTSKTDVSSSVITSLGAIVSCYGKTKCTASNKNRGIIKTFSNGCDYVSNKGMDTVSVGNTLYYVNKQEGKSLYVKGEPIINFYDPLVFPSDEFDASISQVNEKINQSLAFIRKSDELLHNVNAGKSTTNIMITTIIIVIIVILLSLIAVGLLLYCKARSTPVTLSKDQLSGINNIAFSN

B1: AM22 monoclonal antibody (antibody, V domains shown)
VH: QVQLVQSGAEVKKPGATVKVSCKISGHTLIKLSIHWVRQAPGKGLEWMGGYEGEVDEIFYAQKFQHRLTVIADTATDTVYMELGRLTSDDTAVYFCGTLGVTVTEAGLGIDDYWGQGTLVTVSS
VL: EIVLTQSPGTLSLSPGERATLSCRASQIVSRNHLAWYQQKPGQAPRLLIFGASSRATGIPVRFSGSGSGTDFTLTINGLAPEDFAVYYCLSSDSSIFTFGPGTKVDFKR
RSV neutralization (flow cytometry, RSV-GFP on HEp-2 cells): ~50 fold (potency relative to palivizumab)
